# Experimental data as given in paper PMC12143351.
# Read-outs that look alike come from different tables or passages of the source.
# Legend:
# [1] = target: WT-nsp5_(BA.1), SARS-CoV-2 nsp5 protease of the Omicron (BA.1) strain (SARS-CoV-2 (Omicron BA.1)); experiment: SEC-MALS
# [2] = target: WT-nsp5_(BA.1), SARS-CoV-2 nsp5 protease of the Omicron (BA.1) strain (SARS-CoV-2 (Omicron BA.1)); experiment: SEC-MALS; remark: listed apart in the source
substance,measurement,setting,value
"WT-nsp5_(BA.1), SARS-CoV-2 nsp5 protease of the Omicron (BA.1) strain (enzyme)",percent dimeric,[1],72%
same,stoichiometry N,[1],2
same,percent dimeric,[2],64%
